According to publication PMC12772213:
Read-outs that look alike come from different tables or passages of the source.

Key:
[1] = target: Actin filaments (rabbit skeletal muscle actin) (rabbit) (UniProt P68135); assay: three-bead optical trap; unloaded; cHMM held on pedestal beads through antibody to the S2Tag, actin filament suspended between two trapped beads; 2 mM MgATP; 20 °C; 60 mM MOPS, 25 mM KCl, 1 mM DTT, 1 mM MgCl2, 1 mM EGTA; single-molecule events by bead covariance
[2] = target: Actin filaments (rabbit skeletal muscle actin) (rabbit) (UniProt P68135)
[3] = target: Actin filaments (rabbit skeletal muscle actin) (rabbit) (UniProt P68135); assay: three-bead optical trap; pedestal bead stage feedback; time between single actomyosin interactions at saturating (2 mM) ATP, double-exponential distribution; cHMM held through antibody to the S2Tag; 20 °C
[4] = target: Actin filaments (rabbit skeletal muscle actin) (rabbit) (UniProt P68135); assay: three-bead optical trap; unloaded; cHMM held on pedestal beads through antibody to the S2Tag, actin filament suspended between two trapped beads; 1 µM MgATP; 20 °C; 60 mM MOPS, 25 mM KCl, 1 mM DTT, 1 mM MgCl2, 1 mM EGTA; single-molecule events by bead covariance
Pyrene-actin (rabbit) = Pyrene-actin (rabbit) (UniProt P68135); assay: stopped-flow pyrene-actin fluorescence; myosin heads (apyrase-treated) mixed with equimolar pyrene-actin 10 min at RT in KMg25 buffer (60 mM MOPS pH 7, 25 mM KCl, 1 mM EGTA, 1 mM MgCl2, 1 mM DTT), then mixed with ATP; ATP-induced dissociation followed by pyrene fluorescence
[5] = target: Actin filaments (rabbit skeletal muscle actin) (rabbit) (UniProt P68135); assay: three-bead optical trap; isometric feedback (hindering load); detachment rate vs. force fitted to the Bell equation, interactions >10 pN excluded; cHMM held through antibody to the S2Tag; 20 °C
[6] = target: Actin filaments (rabbit skeletal muscle actin) (rabbit) (UniProt P68135); assay: as above; remark: listed apart in the source

## Human β-cardiac myosin HMM M493I mutant (M493I-cHMM) (from UniProt P12883 1-1935; P05977 1-188; P97457 1-169) (complex)
[1]
  k detach (2 mM ATP): 12.1 s⁻¹
[2]
  Actin gliding velocity (in vitro gliding assay, cHMM held through S2Tag antibody, rhodamine-phalloidin labeled actin, 32 °C): 0.46 µm/s
[3]
  actin reattachment rate in optical trap (fast): 23 s⁻¹
  actin reattachment rate in optical trap (slow): 1.62 s⁻¹
[4]
  k detach (1 μM ATP): 6.26 s⁻¹
Pyrene-actin (rabbit)
  maximum rate of ATP-induced dissociation of actomyosin: 340 s⁻¹
[5]
  Bell equation k0 (detachment rate at zero force): 12.9 s⁻¹

## Human β-cardiac myosin wild type HMM (WT-cHMM) (from UniProt P12883 1-1935; P05977 1-188; P97457 1-169) (complex)
[1]
  k detach (2 mM ATP): 58.5 s⁻¹
[2]
  Actin gliding velocity (in vitro gliding assay, cHMM held through S2Tag antibody, rhodamine-phalloidin labeled actin, 32 °C): 1.6 µm/s
[3]
  actin reattachment rate in optical trap (fast): 17 s⁻¹
  actin reattachment rate in optical trap (slow): 0.83 s⁻¹
[6]
  Bell equation k0 (detachment rate at zero force): 32 s⁻¹
[4]
  k detach (1 μM ATP): 6.09 s⁻¹
[5]
  Bell equation k0 (detachment rate at zero force): 32.9 s⁻¹
